Patent publication US20230312740A1 (VIRTUOSO BINCO, published 2023)
Changes are numbered by the printed parent chain. Values belong to the binder of their own block, whether it stands above or below them.

Legend:
[1] = target: T1, ICAM1 on the surface of tumor cells (human, UniProt P05362 28-532); experiment: flow cytometry on DU145 cells
T1 construct: whole, on cells; also called ICAM1 on DU145 cells; ICAM1 on the surface of Daudi cells
Method: (§1) Surface expression of CD38 and ICAM1 on the transformed cell lines was quantified by flow cytometry. Harvested cells were centrifuged at 2000 rpm for 5 min, resuspended in 10 - 15 ml ice-cold culture medium, and then counted. Then, 3×10⁶ cells were resuspended per ml of blocking buffer (PBS plus 2% FBS). 100 µl of the cell suspension was dispensed into each well of a 96-well plate and incubated at room temperature for 10-20 min. […] While incubating, purified antibodies were diluted to the desired dilution with blocking buffer. After a 10-20 minutes incubation, cells were centrifuged for 5 minutes at 2000 rpm in a refrigerated centrifuge. Blocking buffer was aspirated, and the cells were resuspended in 100 µl/well diluted antibodies and incubated for 1 hour at 4° C. The cells were then washed 3 times with PBS plus 2% FBS. […] The cells were then washed 3 times with 200 µl PBS by centrifuging at 2000 rpm for 5 min. After the last wash, the cells were resuspended in 300 µl cold PBS and analyzed on a FACSVerse™ (BD Biosciences) flow cytometer.
(§2) Binding of the chimeric anti-CD38 and anti-ICAM1 antibodies to proteins on the surface of tumor cells was determined by flow cytometry, as described above.

[2] = target: T2, Human ICAM1 ECD-Avi (human, UniProt P05362 28-480); experiment: SPR (Biacore 8K), antibody captured, monomeric ICAM1 ECD injected
T2 construct: eluted as a monomer; also called hICAM1; recombinant ICAM1
Method: (§3) Furthermore, binding kinetics measurements of the anti-CD38 and anti-ICAM1 antibodies were not affected by antibody valency in the SPR assays because antibodies were immobilized and challenged with monomeric antigens. SPR was performed on a Biacore 8K instrument (GE Healthcare). Antibodies were captured on Biacore Series S CM5 sensor chips coated with a monoclonal mouse anti-human IgG (Fc) antibody (GE Healthcare human antibody capture kit). Serial 3-fold dilutions of antigen (CD38 ECD or ICAM1 ECD) were injected at a flow rate of 30 µl/min. Each sample was analyzed with 1 min association and 10 min dissociation at room temperature (25° C.). After each injection, the chip was regenerated using 3 M MgCl₂. A 1:1 Langmuir model of simultaneous fitting of kₒₙ and koff was used for kinetics analysis.

[3] = target: T2, Human ICAM1 ECD-Avi; experiment: ELISA, plate coated with recombinant ICAM1
Method: (§4) A 96-well plate was coated overnight at 4° C. with 1 µg/ml recombinant CD38 or ICAM1. After washing 3 times, the plate was blocked with 300 µl 1% BSA in PBST at 37° C. for 1 hour. Serially diluted antibodies were added and incubated at 37° C. for 1 hour. The plate was then washed 4 times with PBST and incubated with 1:5000 diluted 2nd antibody (Sigma, Cat# A0293) at 37° C. for 1 hour.

[4] = target: T1, ICAM1 on the surface of tumor cells; experiment: flow cytometry on Daudi cells; lower end of the range; Daudi cells
Method: as §1

[5] = target: T3, CD38 on the surface of tumor cells (human, UniProt P28907 1-300); experiment: cell-based or functional assay
[6] = target: T3, CD38 on the surface of tumor cells; experiment: flow cytometry on Daudi cells
Method: as §1, §2

[7] = target: T4, Avi-human CD38 ECD (human, UniProt P28907 43-300); experiment: ELISA, plate coated with recombinant CD38
T4 construct: eluted as a monomer; also called hCD38; huCD38
Method: as §4

[8] = target: T4, Avi-human CD38 ECD; experiment: SPR (Biacore 8K), antibody captured, monomeric CD38 ECD injected
Method: as §3

EC50 [1]: 1000 to 1500 pM
Kd [2]: 100 to 500 pM
EC50 [3]: ~50 pM
B1: anti-ICAM1 chimeric monoclonal antibody 11F2 (antibody, human IgG1, kappa, V domains shown)
VH: QSVEESGGGLVKPGGTLTLTCTVSGFSLSSHAMGWVRQAPGKGLEYIGIIGSSDRTYYASWAKGRFTISKTSTTVDLKITSPTTEDTATYFCVRDPYDSYDDGYRLWGPGTLVTVSS
VL: AYDMTQTPASVEVAVGGTVTIKCQASQSIYRYLSWYQKKPGQRPKFLIYDASKLASGVPSRFEGSGSGTEFTLTISGAQSDDAATYYCQQAYSSGSIDNAFGGGTEVVVKR
notes: Rabbit variable domains on human IgG1 / human kappa constant regions; also called chimeric 11F2

EC50 [4]: 40 to 80 pM
EC50 [1]: 1000 to 1500 pM
Kd [2]: 100 to 500 pM
EC50 [3]: ~50 pM
B2: anti-ICAM1 chimeric monoclonal antibody 8B12 (antibody, human IgG1, kappa, V domains shown)
VH: B1 VH with S30T, Y100F
VL: B1 VL with R31S, K38Q, L54V, E63K, G77A, A78V, G95S, S96N, I97V, V108M
notes: Rabbit variable domains on human IgG1 / human kappa constant regions; also called chimeric 8B12

CDC on Daudi cells, EC50 [5]: 1000 to 2000 pM
EC50 [6]: 300 to 1000 pM
EC50 [7]: ~50 pM
Kd [8]: 100 to 500 pM
B3: anti-CD38 chimeric monoclonal antibody 18E4 (antibody, human IgG1, kappa, V domains shown)
VH: QSLEESGGDLVKPGASLTLTCTASGFSFNNYWICWIRQAPGKGLEWVACIYSPSGDIKYYANWAKGRFTVSKTSSTTVTLQMTSLTGADTATYFCARELSGSSYEGYFESWGPGTLVTVSS
VL: AQVLTQTPSSVSAAVGGTVTINCQCSQSVYGHNWLAWYQHKPGQPPKLLMYRASNLASGVPSRFKGSGSGSQFTLTIGEVQSDDAATYYCQGYYNGGSYAFGGGTEVVVRR
notes: Rabbit variable domains on human IgG1 / human kappa constant regions; also called chimeric 18E4; Chimeric antibody 18E4
